Target: Influenza H1 (A/Brisbane/59/2007) HA Clamp (Influenza A virus …, UniProt D5F1Q8, stabilised)
Assay: ELISA
Details: both partners purified

Row | Binder | Kd [pM]
1 | recombinant bat antibody C05 with human signal peptide (bat C05Hsp) (antibody, V domains shown, also called bC05Hsp; ReBA) VH: QVQLQESGGGLVQPGESLRLSCVGSGSSFGESTLSYYAVSWVRQAPGKGLEWLSIINAGGGDIDYADSVEGRFTISRDNSKETLYLQMTNLRVEDTGVYYCAKHMSMQQVVSAGWERADLVGDAFDVWGQGTMVTVSS VL: DIQLTQSPSSLSASVGDRVTLTCQASQDIRKFLNWYQQKPGKGPKLLIYDASNLQRGVPSRFSGGGSGTDFTLIISSLQPEDVGTYYCQQYDGLPFTFGGGTKVVIK | 250
2 | recombinant bat antibody C05 with bat signal peptide (bC05Bsp) (antibody, V domains shown, also called ReBA) VH: QVQLQESGGGLVQPGESLRLSCVGSGSSFGESTLSYYAVSWVRQAPGKGLEWLSIINAGGGDIDYADSVEGRFTISRDNSKETLYLQMTNLRVEDTGVYYCAKHMSMQQVVSAGWERADLVGDAFDVWGQGTMVTVSS VL: DIQLTQSPSSLSASVGDRVTLTCQASQDIRKFLNWYQQKPGKGPKLLIYDASNLQRGVPSRFSGGGSGTDFTLIISSLQPEDVGTYYCQQYDGLPFTFGGGTKVVIK | 390
